Tested on: Escherichia coli TOP10
Assay: shrunken log2 fold change of peptide-encoding DNA abundance (4.5 h post-induction vs induction); higher = less antimicrobial activity (less host growth inhibition)
Details: time post-induction: 4.5 h; library: site-saturation at positions 5, 18, 19, 20
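Note: peptides expressed intracellularly from a pBAD plasmid library in pooled LB shake-flask culture, induced with 0.3% L-arabinose, DNA abundance read by NGS, three biological replicates, DESeq2 with apeglm shrinkage.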

Sequence	shrunken log2 fold change
RRIRIRPPRLPRPRPRPWKLPRP	-0.0644
RRIRIRPPRLPRPRPRPWKPPRP	-0.093
RRIRIRPPRLPRPRPRPWLLPRP	-0.0948
RRIRIRPPRLPRPRPRPWLRPRP	-0.358
RRIRIRPPRLPRPRPRPWLTPRP	-0.096
RRIRIRPPRLPRPRPRPWMGPRP	-0.185
RRIRIRPPRLPRPRPRPWNKPRP	-0.0719
RRIRIRPPRLPRPRPRPWPEPRP	-0.162
RRIRIRPPRLPRPRPRPWPHPRP	-0.394
RRIRIRPPRLPRPRPRPWPIPRP	-0.0934
RRIRIRPPRLPRPRPRPWPLPRP	-0.122
RRIRIRPPRLPRPRPRPWQCPRP	0.034
RRIRIRPPRLPRPRPRPWQSPRP	-0.0531
RRIRIRPPRLPRPRPRPWWVPRP	-0.077
RRIRIRPPRLPRPRPRPWYAPRP	-0.644
RRIRIRPPRLPRPRPRPYAHPRP	-0.184
RRIRIRPPRLPRPRPRPYCEPRP	-0.21
RRIRIRPPRLPRPRPRPYEWPRP	-0.00783
RRIRIRPPRLPRPRPRPYFVPRP	-0.612
RRIRIRPPRLPRPRPRPYGVPRP	-0.266
RRIRIRPPRLPRPRPRPYHPPRP	-0.0475
RRIRIRPPRLPRPRPRPYHTPRP	-1.25
RRIRIRPPRLPRPRPRPYKTPRP	-0.0104
RRIRIRPPRLPRPRPRPYLMPRP	-0.143
RRIRIRPPRLPRPRPRPYMKPRP	-0.495

Sequence	shrunken log2 fold change
RRIRIRPPRLPRPRPRPYMRPRP	0.0163
RRIRIRPPRLPRPRPRPYMTPRP	-1.6
RRIRIRPPRLPRPRPRPYNKPRP	-0.783
RRIRIRPPRLPRPRPRPYQKPRP	-0.243
RRIRIRPPRLPRPRPRPYRPPRP	-0.0527
RRIRIRPPRLPRPRPRPYSCPRP	-0.0992
RRIRIRPPRLPRPRPRPYSSPRP	-0.239
RRIRIRPPRLPRPRPRPYTCPRP	-0.0187
RRIRIRPPRLPRPRPRPYTGPRP	-0.177
RRIRIRPPRLPRPRPRPYVYPRP	-0.144
RRIRIRPPRLPRPRPRPYWMPRP	-0.379
RRIRIRPPRLPRPRPRPYYTPRP	-0.389
RRIRKRPPRLPRPRPRPAAPPRP	1.6
RRIRKRPPRLPRPRPRPAASPRP	0.593
RRIRKRPPRLPRPRPRPAATPRP	0.838
RRIRKRPPRLPRPRPRPADGPRP	0.223
RRIRKRPPRLPRPRPRPADYPRP	-0.0391
RRIRKRPPRLPRPRPRPAFFPRP	0.411
RRIRKRPPRLPRPRPRPAFPPRP	0.165
RRIRKRPPRLPRPRPRPAFSPRP	-0.0331
RRIRKRPPRLPRPRPRPAIFPRP	0.233
RRIRKRPPRLPRPRPRPAIHPRP	-0.0696
RRIRKRPPRLPRPRPRPAIQPRP	0.396
RRIRKRPPRLPRPRPRPAISPRP	0.214
RRIRKRPPRLPRPRPRPAKCPRP	0.174

Sequence	shrunken log2 fold change
RRIRKRPPRLPRPRPRPALDPRP	0.772
RRIRKRPPRLPRPRPRPALGPRP	0.0812
RRIRKRPPRLPRPRPRPALTPRP	0.622
RRIRKRPPRLPRPRPRPANVPRP	-0.196
RRIRKRPPRLPRPRPRPAQTPRP	0.246
RRIRKRPPRLPRPRPRPATAPRP	0.18
RRIRKRPPRLPRPRPRPATYPRP	0.0782
RRIRKRPPRLPRPRPRPAVHPRP	0.112
RRIRKRPPRLPRPRPRPAVVPRP	0.0614
RRIRKRPPRLPRPRPRPAWHPRP	0.378
RRIRKRPPRLPRPRPRPAYHPRP	-0.144
RRIRKRPPRLPRPRPRPAYWPRP	0.424
RRIRKRPPRLPRPRPRPCACPRP	0.0293
RRIRKRPPRLPRPRPRPCAFPRP	0.0922
RRIRKRPPRLPRPRPRPCCWPRP	1.1
RRIRKRPPRLPRPRPRPCDIPRP	-0.0579
RRIRKRPPRLPRPRPRPCMWPRP	-0.189
RRIRKRPPRLPRPRPRPCPFPRP	-0.223
RRIRKRPPRLPRPRPRPCPGPRP	-0.251
RRIRKRPPRLPRPRPRPCRHPRP	-0.00769
RRIRKRPPRLPRPRPRPCRNPRP	-0.0611
RRIRKRPPRLPRPRPRPCRVPRP	0.0931
RRIRKRPPRLPRPRPRPCSFPRP	-0.397
RRIRKRPPRLPRPRPRPCVLPRP	0.0725
RRIRKRPPRLPRPRPRPDACPRP	0.00649

Sequence	shrunken log2 fold change
RRIRKRPPRLPRPRPRPDAIPRP	0.889
RRIRKRPPRLPRPRPRPDCDPRP	0.095
RRIRKRPPRLPRPRPRPDCLPRP	-0.116
RRIRKRPPRLPRPRPRPDDIPRP	0.0454
RRIRKRPPRLPRPRPRPDDMPRP	2.74
RRIRKRPPRLPRPRPRPDDNPRP	1.02
RRIRKRPPRLPRPRPRPDGDPRP	3.21
RRIRKRPPRLPRPRPRPDGVPRP	0.154
RRIRKRPPRLPRPRPRPDGYPRP	-0.0936
RRIRKRPPRLPRPRPRPDIAPRP	1
RRIRKRPPRLPRPRPRPDKFPRP	0.126
RRIRKRPPRLPRPRPRPDKRPRP	-0.0063
RRIRKRPPRLPRPRPRPDLLPRP	0.237
RRIRKRPPRLPRPRPRPDLPPRP	0.222
RRIRKRPPRLPRPRPRPDMFPRP	-0.258
RRIRKRPPRLPRPRPRPDMIPRP	0.013
RRIRKRPPRLPRPRPRPDNHPRP	-0.715
RRIRKRPPRLPRPRPRPDNKPRP	-0.119
RRIRKRPPRLPRPRPRPDNNPRP	0.0165
RRIRKRPPRLPRPRPRPDQRPRP	0.458
RRIRKRPPRLPRPRPRPDRAPRP	0.115
RRIRKRPPRLPRPRPRPDTCPRP	0.0482
RRIRKRPPRLPRPRPRPDVHPRP	-0.00151
RRIRKRPPRLPRPRPRPDVMPRP	-0.0462
RRIRKRPPRLPRPRPRPDWLPRP	0.308

Sequence	shrunken log2 fold change
RRIRKRPPRLPRPRPRPEAHPRP	0.151
RRIRKRPPRLPRPRPRPECDPRP	3.35
RRIRKRPPRLPRPRPRPECPPRP	0.306
RRIRKRPPRLPRPRPRPEDGPRP	1.9
RRIRKRPPRLPRPRPRPEDYPRP	1.15
RRIRKRPPRLPRPRPRPEETPRP	2.19
RRIRKRPPRLPRPRPRPEFPPRP	0.0804
RRIRKRPPRLPRPRPRPEGYPRP	0.0317
RRIRKRPPRLPRPRPRPEHDPRP	0.169
RRIRKRPPRLPRPRPRPEHIPRP	0.0147
RRIRKRPPRLPRPRPRPEHPPRP	0.822
RRIRKRPPRLPRPRPRPEIDPRP	2.84
RRIRKRPPRLPRPRPRPEIGPRP	0.191
RRIRKRPPRLPRPRPRPELEPRP	0.0875
RRIRKRPPRLPRPRPRPEMFPRP	0.0732
RRIRKRPPRLPRPRPRPEMMPRP	0.113
RRIRKRPPRLPRPRPRPENGPRP	0.0267
RRIRKRPPRLPRPRPRPEPCPRP	0.0397
RRIRKRPPRLPRPRPRPEPSPRP	0.956
RRIRKRPPRLPRPRPRPESDPRP	0.262
RRIRKRPPRLPRPRPRPESTPRP	1.38
RRIRKRPPRLPRPRPRPEWYPRP	-0.204
RRIRKRPPRLPRPRPRPEYEPRP	0.0698
RRIRKRPPRLPRPRPRPEYNPRP	0.196
RRIRKRPPRLPRPRPRPEYTPRP	0.0243

Sequence	shrunken log2 fold change
RRIRKRPPRLPRPRPRPFCQPRP	0.212
RRIRKRPPRLPRPRPRPFCSPRP	-0.00787
RRIRKRPPRLPRPRPRPFEFPRP	0.0169
RRIRKRPPRLPRPRPRPFEIPRP	-0.201
RRIRKRPPRLPRPRPRPFFMPRP	0.112
RRIRKRPPRLPRPRPRPFFWPRP	1.09
RRIRKRPPRLPRPRPRPFGQPRP	0.783
RRIRKRPPRLPRPRPRPFHPPRP	-0.158
RRIRKRPPRLPRPRPRPFKAPRP	-0.111
RRIRKRPPRLPRPRPRPFKCPRP	-0.0191
RRIRKRPPRLPRPRPRPFKKPRP	0.00557
RRIRKRPPRLPRPRPRPFKNPRP	-0.0646
RRIRKRPPRLPRPRPRPFLGPRP	0.0561
RRIRKRPPRLPRPRPRPFLRPRP	0.13
RRIRKRPPRLPRPRPRPFQVPRP	0.0377
RRIRKRPPRLPRPRPRPFSMPRP	-0.489
RRIRKRPPRLPRPRPRPFSQPRP	-0.151
RRIRKRPPRLPRPRPRPFVFPRP	0.277
RRIRKRPPRLPRPRPRPFVQPRP	0.034
RRIRKRPPRLPRPRPRPGAIPRP	0.238
RRIRKRPPRLPRPRPRPGAYPRP	0.0945
RRIRKRPPRLPRPRPRPGCSPRP	0.289
RRIRKRPPRLPRPRPRPGGFPRP	0.223
RRIRKRPPRLPRPRPRPGHNPRP	-0.0457
RRIRKRPPRLPRPRPRPGHSPRP	-0.0124

Reference: the supplement of paper PMC9112550, “Optimization of the antimicrobial peptide Bac7 by deep mutational scanning” (BMC Biology, 2022)
